11 molecules from patent US20250376519A1 (JIANGSU HENGRUI PHARMACEUTICALS, published 2025) can be followed below.

Test [1] has as its target T1, human DLL3 (ACRO, DLL3-H52H4) (human, UniProt Q9NYJ7 27-492).
T1 construct: Bought
T1 sequence: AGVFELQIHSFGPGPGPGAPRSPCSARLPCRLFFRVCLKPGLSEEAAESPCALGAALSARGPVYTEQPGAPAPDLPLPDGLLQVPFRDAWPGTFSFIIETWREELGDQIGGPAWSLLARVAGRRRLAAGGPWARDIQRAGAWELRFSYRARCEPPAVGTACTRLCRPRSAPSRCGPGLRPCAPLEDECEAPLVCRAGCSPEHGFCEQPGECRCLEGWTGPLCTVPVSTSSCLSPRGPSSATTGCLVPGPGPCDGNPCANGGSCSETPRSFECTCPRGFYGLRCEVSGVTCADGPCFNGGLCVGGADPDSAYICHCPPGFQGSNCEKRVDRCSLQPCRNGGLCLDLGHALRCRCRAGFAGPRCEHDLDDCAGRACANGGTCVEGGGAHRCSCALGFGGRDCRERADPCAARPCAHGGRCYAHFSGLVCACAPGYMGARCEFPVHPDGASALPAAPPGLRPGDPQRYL
Nature of the test: SPR Biacore 8K, Ab captured on Protein A. An excerpt: Test antibodies were affinity-captured with a Protein A biosensor chip (Cat. #29127556, Cytiva) for 18 seconds, and then the antigens human DLL3 (ACRO, DLL3-H52H4), cynomolgus monkey DLL3 (KACTUS, DLL-RM103), mouse DLL3 (KACTUS, DLL-MM103), human CD3D&3E (ACRO, CDD-H52W1), and monkey CD3D&3E (ACRO, CDD-C52W4) were allowed to flow through the surface of the chip for 180 seconds, followed by 600 seconds of dissociation. Reaction signals were detected in real time using a Biacore 8K (Cytiva) instrument to obtain association and dissociation curves. After the dissociation in each experimental cycle, the chip was washed and regenerated with a 10 mM glycine-hydrochloric acid solution (pH 1.5, Cat. #BR-1003-54, Cytiva). Data fitting was performed using a 1:1 Model.

In test [2] the target is T2, human DLL3 on cells (human, UniProt Q9NYJ7 27-618).
T2 construct: Endogenous on H1184 and SHP77; Cell line is named under assay; also called H1184; DLL3/H82
T2 sequence: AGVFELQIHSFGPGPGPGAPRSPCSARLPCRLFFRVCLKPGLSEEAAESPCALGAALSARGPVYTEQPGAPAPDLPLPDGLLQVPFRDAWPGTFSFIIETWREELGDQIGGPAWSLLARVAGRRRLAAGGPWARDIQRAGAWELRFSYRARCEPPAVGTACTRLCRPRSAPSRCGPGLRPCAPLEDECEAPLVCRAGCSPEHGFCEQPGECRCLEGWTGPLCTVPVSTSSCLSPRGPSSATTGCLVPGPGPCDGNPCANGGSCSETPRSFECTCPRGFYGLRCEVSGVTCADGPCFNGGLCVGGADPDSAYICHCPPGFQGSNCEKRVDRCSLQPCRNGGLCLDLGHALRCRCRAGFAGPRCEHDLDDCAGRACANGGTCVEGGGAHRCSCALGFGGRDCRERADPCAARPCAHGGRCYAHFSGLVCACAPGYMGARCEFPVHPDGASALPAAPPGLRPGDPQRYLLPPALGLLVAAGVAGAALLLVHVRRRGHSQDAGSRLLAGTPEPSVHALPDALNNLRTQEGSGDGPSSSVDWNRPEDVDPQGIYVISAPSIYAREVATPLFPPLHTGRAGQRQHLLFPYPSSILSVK
Nature of the test: flow cytometry, H1184 cells. On the procedure:
(§1) The plates were centrifuged at 300 g for 5 min, and the supernatant was removed. Different concentrations of test antibodies were added at 100 μL/well. The plates were incubated in the dark in a refrigerator at 4° C. for 1 h. After 3 centrifugal washes at 300 g, working concentrations of APC anti-human IgG Fc (BioLegend, 410712) or PE F(ab′)2-goat anti-human IgG (invitrogen, H10104) were added. The plates were incubated in the dark in a refrigerator at 4° C. for 40 min. After 3 centrifugal washes at 300 g, the geometric mean fluorescence intensity was measured on an Invitrogen flow cytometer, and the EC50 values for the binding of the antibodies to DLL3-expressing cells were calculated.

Test [3] concerns the target T2, human DLL3 on cells. As to the kind of experiment: flow cytometry, DLL3/H82 cells. The arrangement: key to Emax: geometric mean fluorescence intensity (flow cytometry). As to the method: as §1

B1: hu6L2H2 (antibody, human IgG1, kappa, V domains shown)
VH: EVQLVQSGAEVKKPGASVKVSCKASGYTFTDYYMNWVRQAPGQRLEWMGIINPYSGVTIYNHKFKGRVTLTVDKSANTAYMELSSLRSEDTAVYYCARQDSLLDYAMDYWGQGTTVTVSS
VL: DIQMTQSPSSLSASVGDRVTITCHASQGISGNMGWLQQKPGKAPKGLIYHGANLEDGVPSRFSGSGSGADYTLTISSLQPEDFATYYCVQYAQFPYTFGGGTKVEIKR
In the case of B1, in test [1], the affinity, expressed as Kd, was 1.64 nM; the koff came to 0.00116 s⁻¹; the kon was found to be 704000 M⁻¹ s⁻¹. Further, in the test with human DLL3 on cells [2], the EC50 was 0.06 nM and the Emax was determined as 2190.

B2: hu6L2H6 (antibody, human IgG1, kappa, V domains shown)
VH: EVQLVQSGSELKKPGASVKVSCKASGYTFTDYYMNWVRQAPGQGLEWMGIINPYSGVTIYNHKFKGRFVLSVDKSSNTAYLQISSLKAEDTAVYYCARQDSLLDYAMDYWGQGTTVTVSS
VL: DIQMTQSPSSLSASVGDRVTITCHASQGISGNMGWLQQKPGKAPKGLIYHGANLEDGVPSRFSGSGSGADYTLTISSLQPEDFATYYCVQYAQFPYTFGGGTKVEIKR
With B2, in test [1], the Kd was determined as 0.877 nM, the dissociation rate constant (koff) worked out at 0.000756 s⁻¹ and the on-rate (kon) worked out at 863000 M⁻¹ s⁻¹. In addition, in the test with human DLL3 on cells [2], the response was half-maximal at 0.05 nM (EC50) and the Emax came to 2420.

B3: hu6L2H12 (antibody, human IgG1, kappa, V domains shown)
VH: EVQLVQSGSELKKPGASVKVSCKASGYTFTDYYMNWVRQAPGQGLEWMGIINPYSGVTIYNHKFKGRFALSVDKSSNTAYLQISSLKAEDTAVYYCARQDSLLDYAMDYWGQGTTVTVSS
VL: DIQMTQSPSSLSASVGDRVTITCHASQGISGNMGWLQQKPGKAPKGLIYHGANLEDGVPSRFSGSGSGADYTLTISSLQPEDFATYYCVQYAQFPYTFGGGTKVEIKR
In test [1], B3 showed a dissociation constant (Kd) of 0.461 nM, an off-rate (koff) of 0.000913 s⁻¹ and an association rate constant (kon) of 1.98e+06 M⁻¹ s⁻¹. In the test with human DLL3 on cells [2], the concentration giving a half-maximal response (EC50) stood at 0.1 nM and the Emax was 2140.

B4: hu6L4H4 (antibody, human IgG1, kappa, V domains shown)
VH: EVQLVQSGAEVKKPGASVKVSCKASGYTFTDYYMNWVRQAPGKRLEWMGIINPYSGVTIYNHKFKGRVTLTVDKSANTAYMELSSLRSEDTAVYYCARQDSLLDYAMDYWGQGTTVTVSS
VL: DIQMTQSPSSLSASVGDRVTITCHASQGISGNMGWLQQKPGKAPKGLIYHGANLEDGVPSRFSGSGSGADYTLTISSLQPEDFADYYCVQYAQFPYTFGGGTKVEIKR
In test [1], B4 showed a Kd of 1.45 nM, an off-rate (koff) of 0.00108 s⁻¹ and an on-rate (kon) of 743000 M⁻¹ s⁻¹. In the test with human DLL3 on cells [2], this molecule displayed a concentration for a half-maximal effect (EC50) of 0.06 nM and an Emax of 2310.

B5: hu30L3H1 (antibody, human IgG1, kappa, V domains shown)
VH: EVQLVQSGAEVKKPGASVKVSCKASGYTFTDYYMNWVRQAPGQSLEWMGIINPYNGDTSYNQKFRGRVTITVDKSASTAYMELSSLRSEDTAVYYCARYHYGPHLEGYFDVWGQGTTVTVSS
VL: DIVMTQSPKSLAVSLGERATINCKASENVGYVSWYQQKPGQSPKLLIYGASNRYTGVPDRFSGSGSATDFTLTISSLQAEDVAVYHCGQSYSYPLTFGQGTKLEIKR
For the molecule B5, in the test with human DLL3 on cells [3], a half-maximal effect (EC50) was put at 0.51 nM and the Emax is 5530. Besides, in test [1], the Kd worked out at 0.362 nM, the off-rate (koff) came to 0.00059 s⁻¹ and the kon is 1.63e+06 M⁻¹ s⁻¹.

B6: hu30L3H3 (antibody, human IgG1, kappa, V domains shown)
VH: EVRLVQSGAEVKKPGASVKVSCKASGYTFTDYYMNWVRQAPGQSLEWMGIINPYQGDTSYNQKFRGRVTLTVDKSASTAYMELSSLRSEDTAVYYCARYHYGPHLEGYFDVWGQGTTVTVSS
VL: DIVMTQSPKSLAVSLGERATINCKASENVGYVSWYQQKPGQSPKLLIYGASNRYTGVPDRFSGSGSATDFTLTISSLQAEDVAVYHCGQSYSYPLTFGQGTKLEIKR
Consider B6, for which, in the test with human DLL3 on cells [3], the EC50 amounted to 0.43 nM and the Emax amounted to 5300. In test [1], this molecule registered a Kd of 1.25 nM, an off-rate (koff) of 0.00131 s⁻¹ and a kon of 1.05e+06 M⁻¹ s⁻¹.

B7: hu30L3H2 (antibody, human IgG1, kappa)
heavy: not shown
light: DIVMTQSPKSLAVSLGERATINCKASENVGYVSWYQQKPGQSPKLLIYGASNRYTGVPDRFSGSGSATDFTLTISSLQAEDVAVYHCGQSYSYPLTFGQGTKLEIKRTVAAPSVFIFPPSDEQLKSGTASVVCLLNNFYPREAKVQWKVDNALQSGNSQESVTEQDSKDSTYSLSSTLTLSKADYEKHKVYACEVTHQGLSSPVTKSFNRGEC
In the test with human DLL3 on cells [3], B7 yielded an EC50 of 0.44 nM and an Emax of 5390. In test [1], this molecule had a dissociation constant (Kd) of 0.891 nM, an off-rate (koff) of 0.000762 s⁻¹ and an on-rate constant (kon) of 855000 M⁻¹ s⁻¹.

B8: hu30L3H4 (antibody, human IgG1, kappa, V domains shown)
VH: EVRLVQSGAEVKKPGASVKVSCKASGYTFTDYYMNWVRQAPGQSLEWMGIINPYSGDTSYNQKFRGRVTLTVDKSASTAYMELSSLRSEDTAVYYCARYHYGPHLEGYFDVWGQGTTVTVSS
VL: DIVMTQSPKSLAVSLGERATINCKASENVGYVSWYQQKPGQSPKLLIYGASNRYTGVPDRFSGSGSATDFTLTISSLQAEDVAVYHCGQSYSYPLTFGQGTKLEIKR
In the test with human DLL3 on cells [3], B8 yielded a concentration giving a half-maximal response (EC50) of 0.43 nM and an Emax of 5340. Besides, in test [1], the Kd is 0.882 nM, the koff came out at 0.000956 s⁻¹ and the kon stood at 1.08e+06 M⁻¹ s⁻¹.

B9: hu30L3H5 (antibody, human IgG1, kappa, V domains shown)
VH: EVRLVQSGAEVKKPGASVKVSCKASGYTFTDYYMNWVRQAPGQSLEWMGIINPYTGDTSYNQKFRGRVTLTVDKSASTAYMELSSLRSEDTAVYYCARYHYGPHLEGYFDVWGQGTTVTVSS
VL: DIVMTQSPKSLAVSLGERATINCKASENVGYVSWYQQKPGQSPKLLIYGASNRYTGVPDRFSGSGSATDFTLTISSLQAEDVAVYHCGQSYSYPLTFGQGTKLEIKR
Regarding B9, in the test with human DLL3 on cells [3], a half-maximal response (EC50) required 0.43 nM and the Emax was 5250. In test [1], this molecule gave a Kd of 0.735 nM, a koff of 0.00082 s⁻¹ and a kon of 1.12e+06 M⁻¹ s⁻¹.

B10: hu30L3H6 (antibody, human IgG1, kappa, V domains shown)
VH: EVRLVQSGAEVKKPGASVKVSCKASGYTFTDYYMNWVRQAPGQSLEWMGIINPYNVDTSYNQKFRGRVTLTVDKSASTAYMELSSLRSEDTAVYYCARYHYGPHLEGYFDVWGQGTTVTVSS
VL: DIVMTQSPKSLAVSLGERATINCKASENVGYVSWYQQKPGQSPKLLIYGASNRYTGVPDRFSGSGSATDFTLTISSLQAEDVAVYHCGQSYSYPLTFGQGTKLEIKR
As to B10, in the test with human DLL3 on cells [3], it took 0.46 nM to reach a half-maximal effect (EC50) and the Emax turned out to be 5340. In test [1], this molecule yielded a dissociation constant (Kd) of 0.939 nM, a koff of 0.000894 s⁻¹ and an association rate constant (kon) of 952000 M⁻¹ s⁻¹.

B11: hu30L3H7 (antibody, human IgG1, kappa)
heavy: not shown
light: DIVMTQSPKSLAVSLGERATINCKASENVGYVSWYQQKPGQSPKLLIYGASNRYTGVPDRFSGSGSATDFTLTISSLQAEDVAVYHCGQSYSYPLTFGQGTKLEIKRTVAAPSVFIFPPSDEQLKSGTASVVCLLNNFYPREAKVQWKVDNALQSGNSQESVTEQDSKDSTYSLSSTLTLSKADYEKHKVYACEVTHQGLSSPVTKSFNRGEC
In the test with human DLL3 on cells [3], B11 had an EC50 of 0.43 nM and an Emax of 5450. For the same molecule, in test [1], the dissociation constant (Kd) is 0.815 nM, the koff was found to be 0.000853 s⁻¹ and the kon came to 1.05e+06 M⁻¹ s⁻¹.
